This note sets out measurements from patent publication US20250074980A1 (BRIGHAM AND WOMEN S HOSPITAL, published 2025).

Test [1] addresses T1, CEACAM6 on transfected HeLa cells (human, UniProt P40199 35-320).
T1 construct: whole, on cells; also called HeLa-CEACAM6; HeLa C6
T1 sequence (looked up): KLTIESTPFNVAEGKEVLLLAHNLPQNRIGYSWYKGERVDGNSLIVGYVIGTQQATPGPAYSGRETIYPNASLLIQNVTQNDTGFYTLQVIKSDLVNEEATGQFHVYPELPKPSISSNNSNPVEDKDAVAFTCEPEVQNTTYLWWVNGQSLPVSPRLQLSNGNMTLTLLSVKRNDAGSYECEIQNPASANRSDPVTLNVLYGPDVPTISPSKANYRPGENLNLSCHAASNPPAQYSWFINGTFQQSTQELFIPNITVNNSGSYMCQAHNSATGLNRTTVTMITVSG
Briefly: flow cytometry titration, HeLa-CEACAM6 transfectants, anti-human IgG4 FITC. How it is done:
(§1) FIGS. 31A and 31B show flow cytometry analyses of stable HeLa CEACAM1 (HeLa C1) transfectant, stable HeLa CEACAM3 transfectant (HeLa C3), stable HeLa CEACAM5 transfectant (HeLa C5), stable HeLa CEACAM6 transfectant (HeLa C6), and stable HeLa CEACAM8 transfectant (HeLa C8). FIG. 31A: 5×10\hat{ }4 indicated HeLa transfectants were washed with staining buffer and CP08H03/Vκ8 S29A (labeled “CP08”, left) or CEACAM1 antibody CM-24 was incubated at room temperature for 30 min, washed twice with staining buffer, and stained for anti-human IgG4 Fluorescein isothiocyanate (FITC) conjugated secondary antibody at room temperature for 20 min. Fluorescence intensities were determined by flow cytometry. Live cells were determined by 4′,6-diamidino-2-phenylindole (DAPI) staining as shown on the y-axis. Staining with the respective CEACAM1 antibody is shown on the x-axis. […]
(§2) The cervical adenocarcinoma cell line HeLa (ATCC No CCL-2) as well as transfected cell lines HeLaCEACAM1, HeLaCEACAM3, HeLaCEACAM5, HeLaCEACAM6 and HeLaCEACAM8 used for flow cytometry experiments were cultured at 37° C., 5.0% CO₂ in Dulbecco's modified Eagle's medium supplemented with 10% fetal bovine serum, penicillin (100 U/ml) and dihydrostreptomycin (100 μg/ml). […] Data were acquired with a Cytoflex flow cytometer (Invitrogen) and analyzed with FlowJo software (TreeStar, V7.6.5 for Windows).
In general terms: Flow cytometry measures light scatter and fluorescence of single cells or particles in a stream.

The target of test [2] is T2, CEACAM5 on transfected HeLa cells (human, UniProt P06731 35-685).
T2 construct: whole, on cells; also called HeLa-CEACAM5; HeLa C5
T2 sequence (looked up): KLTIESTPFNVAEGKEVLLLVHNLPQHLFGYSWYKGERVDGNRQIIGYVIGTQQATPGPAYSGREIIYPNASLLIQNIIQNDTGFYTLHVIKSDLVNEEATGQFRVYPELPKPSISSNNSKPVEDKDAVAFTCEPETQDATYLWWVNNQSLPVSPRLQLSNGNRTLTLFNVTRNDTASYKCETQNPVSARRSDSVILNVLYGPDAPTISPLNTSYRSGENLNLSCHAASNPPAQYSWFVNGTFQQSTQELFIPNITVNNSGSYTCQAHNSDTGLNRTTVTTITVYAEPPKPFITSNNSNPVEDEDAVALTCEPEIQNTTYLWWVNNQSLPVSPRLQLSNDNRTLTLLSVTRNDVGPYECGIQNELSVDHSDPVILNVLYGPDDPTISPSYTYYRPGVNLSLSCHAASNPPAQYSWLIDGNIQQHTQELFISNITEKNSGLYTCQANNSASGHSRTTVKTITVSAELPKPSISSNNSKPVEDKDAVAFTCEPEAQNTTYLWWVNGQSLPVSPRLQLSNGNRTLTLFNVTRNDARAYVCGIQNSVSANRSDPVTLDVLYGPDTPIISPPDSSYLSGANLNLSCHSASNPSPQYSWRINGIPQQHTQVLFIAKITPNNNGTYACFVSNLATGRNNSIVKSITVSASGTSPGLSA
The experiment in a line: flow cytometry titration, HeLa-CEACAM5 transfectants, anti-human IgG4 FITC. How it is done:
as §1, §2

Test [3] has as its target T1, CEACAM6 on transfected HeLa cells. The experiment in a line: flow cytometry, HeLa-CEACAM6 transfectants, % positive cells.
Test [4] deals with T3, CEACAM1 on transfected HeLa cells (human, UniProt P13688 35-526).
T3 construct: also called HeLa-CEACAM1; HeLa C1
T3 sequence: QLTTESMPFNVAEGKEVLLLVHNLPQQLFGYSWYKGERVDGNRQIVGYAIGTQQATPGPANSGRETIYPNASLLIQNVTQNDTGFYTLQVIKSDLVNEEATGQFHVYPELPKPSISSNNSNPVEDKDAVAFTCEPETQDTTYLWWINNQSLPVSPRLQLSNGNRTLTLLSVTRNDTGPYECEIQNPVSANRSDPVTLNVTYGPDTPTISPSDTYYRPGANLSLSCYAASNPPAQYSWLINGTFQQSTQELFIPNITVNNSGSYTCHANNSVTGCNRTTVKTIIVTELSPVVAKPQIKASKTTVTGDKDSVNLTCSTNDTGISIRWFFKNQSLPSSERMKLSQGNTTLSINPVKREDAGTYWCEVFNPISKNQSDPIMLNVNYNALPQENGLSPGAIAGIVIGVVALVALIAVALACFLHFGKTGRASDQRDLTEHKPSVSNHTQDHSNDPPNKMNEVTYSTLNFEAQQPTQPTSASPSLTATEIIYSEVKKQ
Briefly: flow cytometry, transfected HeLa.

Test [5] concerns the target T1, CEACAM6 on transfected HeLa cells. The experiment in a line: flow cytometry, transfected HeLa.
The target of test [6] is T2, CEACAM5 on transfected HeLa cells. The experiment in a line: flow cytometry, transfected HeLa.

B1: CP08H03/Vκ8 S29A (antibody, IgG4, V domains shown)
VH: EVQLLESGGGLVQPGGSLRLSCAASGFIFSSHGMSWVRQAPGKGLEWVATISSGGTYTYYPDSVKGRFTISRDNSKNTLYLQMNSLKAEDTAMYYCARHDFDYFPYWFAHWGQGTLVTVSS
VL: EIVLTQSPATLSLSPGERATLSCRANSAVSYMYWYQQKPGQAPRPWIYLTSNRATGVPARFSGSGSGTDYTLTISSLEPEDFAVYYCQQWSSNPPTFGQGTKLEIK
notes: IgG4 (S241P), kappa; also called CP08_H03/Parent VL; CP08_H03/Parental
With B1, the binding result in test [1] and in test [2] was “no binding (tested: 100 ug/ml)” each time.

B2: chimeric antibody VH0/Vκ0 (antibody, IgG4, V domains shown)
VH: EVQLVESGGDLVKPGGSLKLACAASGFIFSSHGMSWVRQTPDKRLEWVATISSGGTYTYYPDSVKGRFTISRDNDKNTLYLQMNSLKSEDTAMYYCARHDFDYDAAWFAYWGQGTLVTVSS
VL: QIVLTQSPALMSASPGVKVTMTCSANSSVSYMYWYRQKPRSSPKPWIYLTSNLASGVPARFSGSGSGTSYSLTISSMEAEDAATYYCQQWSSNPPTFGSGTKLEIK
notes: IgG4 (S241P), kappa; also called VH0/Vκ0 (control); Chimeric VH0/Vκ0
Consider B2, for which, in test [3], the binding result is “no binding”. The “relative amount of cells bound” value in test [4] turned out to be 78; in test [5], 0.3; in test [6], 8.81.
